For four substances, Kd and apparent microscopic Kd, allosteric site (from the M726 signal shift) results are on record in article PMC4722452.

Experiment [1] has as its target Sos^CatW729E (UniProt Q07889). The experiment can be described thus: other fluorescence titration; quenching of the intrinsic Trp fluorescence of Sos (10 μM) on adding Ras (1-50 μM) in Hepes buffer; excitation 295 nm, emission 336 nm; single-site quadratic fit; overall apparent (macroscopic) Kd.
Experiment [2] has as its target Sos^Cat (Son of Sevenless, residues 563-1049) (UniProt Q07889). Described as above.
The target is the same in experiment [3]. The experiment in a line: NMR titration; 1H,13C HMQC of [13C-methyl-Met,Ile]Sos^Cat or Sos^CatW729E (60 μM) with unlabelled Ras added at Ras:Sos 0.5:1 to 4:1; 298 K; Met methyl reporter signals M726 (allosteric), M824 (catalytic), M714 (between).

As for “H-Ras·GDP (from UniProt P01112 1-166) (domain or fragment)”, the Kd in experiment [1] was 67 µM.

As for “K-RasG12V·GTPγS (from UniProt P01116 1-166) (domain or fragment)”, in experiment [2], the Kd is 31 µM.

With “K-Ras·GTPγS (from UniProt P01116 1-166) (domain or fragment)”, in experiment [3], the apparent microscopic Kd, allosteric site (from the M726 signal shift) was 2 µM. In addition, the Kd in experiment [2] was determined as 10 µM.

On to “H-Ras·GTPγS (from UniProt P01112 1-166) (domain or fragment)”, for which, in experiment [1], the Kd came to 28 µM.
